From US20160158369A1, “PHARMACEUTICAL COMPOSITION FOR RESPIRATORY ADMINISTRATION” (SEIKAGAKU CORPORATION, priority 2013, published 2016) come the findings set out here.

One series can be described thus: in vivo. The method, then: As a test substance, the compound is was used, and it was used after being dissolved in phosphate buffered saline such that the pharmaceutical concentration is 3 mg/mL.
For the test, a BN/CrlCrlj rat (Charles River Laboratories International, Inc., 5-week old) was used. It was placed on its back and fixed under general anesthesia, and by using a sonde for intratracheal administration (MicroSprayer (registered trademark) Aerosolizer Model IA-1B, manufactured by Penn-Century), intratracheal administration was performed with volume of 100 μL. As general anesthesia, inhalation of isoflurane (concentration of 3.0% and flow rate of 2.0 L/min) was employed.
Weight of the pulmonary tissue was measured and, after being added with an aqueous solution of ammonium formic acid (pH 6.0):methanol (3:2, v/v) at ratio of 40× (1 g: 40 mL), it was homogenated for about 1 minute under ice cooling by using a homogenizer. […] Meanwhile, the measurement was made with n=3 for each evaluation time point.
Each parameter of pharmacokinetics was calculated from a change in average content in pulmonary tissue. If there was an animal showing the measurement value of less than the lower limit of quantification, the average content in pulmonary tissue was calculated by substituting the value of 0 (zero) for it. The time t (hr) for calculating AUC0-t was the final time point at which the quantification can be made. Meanwhile, for calculation of the parameters of pharmacokinetics, non-compartmental analysis model analysis by WinNonlin Professional (registered trademark) Ver 5.2.1 was used. […] The results are shown in FIG. 2 and the following table.
The compounds vb obtained from Example 5 was evaluated in the same manner as the method described in (Test example B1) in terms of the persistent property of the pharmaceutical in a pulmonary tissue of a normal rat.
As a comparative control group, budesonide alone in the same amount as the compound vb, and a mixture of budesonide and chondroitin sulfate in the same amount as the compound vb were administered. Meanwhile, in the present measurement system, the lower detection limit of budesonide was 1 ng/mL. Meanwhile, the evaluation time points include three points, i.e., Hour 4, 24, and 72.

Series [1] concerns rat antigen-induced asthma model. Nature of the series: Rat antigen-induced asthma model, eosinophils in bronchoalveolar lavage fluid. It is filed as in vivo. The following applies: for number of eosinophils in bronchoalveolar lavage fluid, % of control: average value. The method, then:
Intraperitoneal administration of 1 mL of aluminum hydroxide gel containing ovalbumin (1 mg/mL) was performed 3 times with one day interval. 14 Days after performing the first sensitization, intraperitoneal administration of 1 mL of aluminum hydroxide gel containing ovalbumin (1 mg/mL) was performed again followed by the second sensitization. 7 Days after the second sensitization, inhalation exposure of physiological saline (10 mg/mL) containing ovalbumin was performed by using a nebulizer five times with one day interval in order to induce asthma.
The 0.6 mg/mL prednisolone suspension was orally administered by using a sonde for oral administration under no anesthesia to have prednisolone amount of 3 mg/kg.
Meanwhile, the test was performed with n=6 to 12.
24 Hours after the fifth exposure, phosphate buffered saline (2 mL) containing 0.1% bovine serum albumin heated to 37° C. was injected to a bronchus of a rat under pentobarbital anesthesia and collected thereafter. This procedure was repeated 5 times to have bronchoalveolar lavage fluid. The bronchoalveolar lavage fluid was centrifuged for 3 minutes at 200×g and room temperature. The supernatant was discarded, and the pellet was re-suspended in phosphate buffered saline (500 μL) containing 0.1% bovine serum albumin.
Subsequently, a smear sample of the suspension was prepared followed by Diff-Quik staining. According to cell fractionation, ratio of eosinophil in white blood cells was calculated. According to integration with the number of white blood cells in bronchoalveolar lavage fluid, the number of […] in bronchoalveolar lavage fluid was calculated. Meanwhile, the number of white blood cells in bronchoalveolar lavage fluid was measured by using a blood cell counting chamber. The results are shown in FIG. 4 and the following table.
Dose responsiveness of the compound va in an OVA sensitized rat model was determined in the same manner as (Test example B2).
There were three doses for determination, i.e., 0.35 mg/kg, 3.5 mg/kg, and 35 mg/kg, such that the budesonide amount for administration is 0.1 mg/kg, 1 mg/kg, or 10 mg/kg.

Series [2] is described as follows: Blood kinetics (plasma drug concentration) in normal rat after intratracheal administration. The format is in vivo. The method, then: The resultant was extracted with chloroform and methanol, and the extracted solution was measured by LC-MS/MS.
Series [3] is described as follows: Drug dissociation test: polysaccharide derivative in buffer solution, 36°C, 1 week, HPLC. The format is physicochemical. The method, then:
In the examples relating to drug dissociation test, the drug dissociation ratio was evaluated as described below.
Sodium dihydrogen phosphate dihydrate (780 mg (5.0 mmol)) was dissolved in 500 mL of distilled water to give a liquid A. Separately, disodium hydrogen phosphate dodecahydrate (1.79 g (5.0 mmol)) was dissolved in 500 mL of distilled water to give a liquid B. By mixing the liquid A and liquid B at ratio of 2:3, a phosphate buffer solution of pH 7.5 was prepared.
0.62 g (10 mmol) of boric acid and 0.75 g (10 mmol) of potassium chloride were weighed and dissolved in 500 mL of distilled water to give a liquid C. Separately, by diluting 0.1 N sodium hydroxide solution with distilled water (×10 dilution), a liquid D was prepared.
50 mL of the liquid C and 7 mL of the liquid D were added to a 100 mL mess flask, and according to dilution to 100 mL with distilled water, a borate buffer solution of pH 8.0 was prepared. Furthermore, 50 mL of the liquid C and 40 mL of the liquid D were added to a 100 mL mess flask, and according to mess-up to 100 mL with distilled water, a borate buffer solution of pH 9.0 was prepared.
Each polysaccharide derivative obtained from above was dissolved in a buffer solution at each pH so as to have a concentration of 5 mg/10 mL, and heated for 1 week in an incubator at 36° C. Then, the drug dissociation ratio during the incubation was evaluated every 24 hours by liquid chromatography (HPLC).
The evaluation was performed by measuring the ratio between the drug amount remained in a polysaccharide derivative and the dissociated drug amount according to use of a size exclusion chromatography column (manufactured by TOSOH, TSKgel α-6000, 7.8 mmI.D.×30 cm).
Detailed conditions for the liquid chromatography are as follows.
Analysis time: 40 minutes
Solution for elution: acetonitrile (for HPLC):physiological saline=1:2
Detector: UV detector (240 nm)

Setting [4] is: single intratracheal administration 100 μL, 7 days before the evaluation time point.
Setting [5] is: BN/CrlCrlj, rat, plasma, inhaled or intranasal, 0.3 mg/animal.

In general, Tmax refers to the time at which the peak concentration occurs. A word on the Cmax: it is the peak of the concentration-time curve.

Consider `C[C@H]1C[C@H]2[C@@H]3CCC4=CC(=O)C=C[C@]4(C)[C@@]3(F)[C@@H](O)C[C@]2(C)[C@@]1(O)C(=O)CO` [Betamethasone, betamethasone], for which the Tmax in “in vivo” (BN/CrlCrlj, rat, in vivo, inhaled or intranasal) was 4 h. The “time after administration until which exposure of betamethasone was observed in pulmonary tissue” value in the series “in vivo” (normal rat, intratracheal, final evaluation time point […], lower limit for quantification 10 ng/g) is 48 h. The “number of eosinophils in bronchoalveolar lavage fluid, % of control” value (shortened to “number of eosinophils … % of control”) in series [1] (setting [4]) is 90.0 % of control. For the same molecule, in series [2] (setting [5]), the highest level (Cmax) was 1010 ng/mL and the Tmax was found to be 0.5 h. Further, the “course of plasma concentration (in words)” value in series [2] (betamethasone in plasma, normal rat, intratracheal, lower limit of quantification 5 ng/mL) was “after 24 hours, it was lower than the lower limit for quantification”.
Consider `CCCC1OC2CC3C4CCC5=CC(=O)C=CC5(C)C4C(O)CC3(C)C2(C(=O)COC(=O)CCCCCCCCCCCN)O1` (stereo not shown) [Compound xviiib, Budesonide 12-Aminododecylate], for which the solubility in water result in “Solubility in water” is “good solubility in water”.
Take `C[C@]12C=CC(=O)C=C1CC[C@@H]1[C@@H]2[C@@H](O)C[C@@]2(C)[C@H]1CC[C@]2(O)C(=O)CO` [Prednisolone, prednisolone, reference compound]: the “number of eosinophils … % of control” value in series [1] (oral 3 mg/kg, five times, 30 minutes before inducing asthma, positive control) is reported as 28.0 % of control.
For “Chondroitin Sulfate Introduced with 21-β-Alanyl-Betamethasone [Compound ia]”, the “eosinophil infiltration compared to phosphate buffered saline group (in words)” value in series [1] (Day 7 after single intratracheal administration) is reported as “significantly suppressed eosinophil infiltration”. Also, the “number of eosinophils … % of control” value in series [1] (setting [4]) was 56.8 % of control.
As for “Chondroitin Sulfate Introduced with β-Alanyl-Proxyphylline [Compound xxiia]”, the “Dissociation ratio (%/day)” value in series [3] (pH 7.4, 36°C) is recorded as 0.2 %/day; in series [3] (pH 8.0, 36°C) it was 0.4 %/day. Besides, the drug dissociation ratio in series [3] (pH 7.4, 36°C, day 0) is reported as 0.0%; in series [3] (pH 7.4, 36°C, day 1), 0.0%; in series [3] (pH 7.4, 36°C, day 2) it was 0.0%; in series [3] (pH 7.4, 36°C, day 3), 0.0%; in series [3] (pH 7.4, 36°C, day 4), 0.0%; in series [3] (pH 7.4, 36°C, day 5), 0.0%. The drug dissociation ratio was determined as 0.8% in series [3] (pH 7.4, 36°C, day 6); 1.3% in series [3] (pH 7.4, 36°C, day 7); 0.0% in series [3] (pH 8.0, 36°C, day 0); 0.0% in series [3] (pH 8.0, 36°C, day 1); 0.0% in series [3] (pH 8.0, 36°C, day 2); 1.2% in series [3] (pH 8.0, 36°C, day 3). The drug dissociation ratio in series [3] (pH 8.0, 36°C, day 4) was 1.6%; in series [3] (pH 8.0, 36°C, day 5) it was 2.0%; in series [3] (pH 8.0, 36°C, day 6), 2.3%; in series [3] (pH 8.0, 36°C, day 7), 2.6%.
Turning to “Hyaluronic Acid Introduced with 21-β-Alanyl-Budesonide (390 kDa) [Compound vib]”, the “Dissociation ratio (%/day)” value in series [3] (pH 7.4, 36°C) came to 4.9 %/day; in series [3] (pH 8.0, 36°C) it was 7.9 %/day. Moreover, the drug dissociation ratio in series [3] (pH 7.4, 36°C, day 0) is given as 3.3%; in series [3] (pH 7.4, 36°C, day 1), 9.3%; in series [3] (pH 7.4, 36°C, day 2) it was 16.3%; in series [3] (pH 7.4, 36°C, day 3) it was 18.4%; in series [3] (pH 7.4, 36°C, day 4), 22.3%; in series [3] (pH 7.4, 36°C, day 5), 25.2%. The drug dissociation ratio in series [3] (pH 7.4, 36°C, day 6) was determined as 30.7%; in series [3] (pH 7.4, 36°C, day 7), 34.6%; in series [3] (pH 8.0, 36°C, day 0), 0.4%; in series [3] (pH 8.0, 36°C, day 1), 12.8%; in series [3] (pH 8.0, 36°C, day 2), 16.1%; in series [3] (pH 8.0, 36°C, day 3) it was 23.2%. In addition, the drug dissociation ratio is 36.7% in series [3] (pH 8.0, 36°C, day 4); 44.1% in series [3] (pH 8.0, 36°C, day 5); 50.2% in series [3] (pH 8.0, 36°C, day 6); 55.3% in series [3] (pH 8.0, 36°C, day 7).
Take “Hyaluronic Acid Introduced with 21-β-Alanyl-Budesonide (880 kDa) [Compound via]”: the “Dissociation ratio (%/day)” value in series [3] (pH 7.4, 36°C) worked out at 4.9 %/day; in series [3] (pH 8.0, 36°C) it was 8.2 %/day. Also, the drug dissociation ratio in series [3] (pH 7.4, 36°C, day 0) was 2.0%; in series [3] (pH 7.4, 36°C, day 1), 9.6%; in series [3] (pH 7.4, 36°C, day 2), 16.8%; in series [3] (pH 7.4, 36°C, day 3), 18.3%; in series [3] (pH 7.4, 36°C, day 4), 21.7%; in series [3] (pH 7.4, 36°C, day 5), 23.9%. The drug dissociation ratio in series [3] (pH 7.4, 36°C, day 6) amounted to 30.9%; in series [3] (pH 7.4, 36°C, day 7) it was 34.3%; in series [3] (pH 8.0, 36°C, day 0) it was 0.9%; in series [3] (pH 8.0, 36°C, day 1), 15.0%; in series [3] (pH 8.0, 36°C, day 2), 20.4%; in series [3] (pH 8.0, 36°C, day 3), 26.4%. Further, the drug dissociation ratio in series [3] (pH 8.0, 36°C, day 4) was found to be 39.9%; in series [3] (pH 8.0, 36°C, day 5), 46.2%; in series [3] (pH 8.0, 36°C, day 6) it was 52.6%; in series [3] (pH 8.0, 36°C, day 7), 57.1%.
Turning to “Hyaluronic Acid Introduced with Proxyphylline [xxiib]”, the “Dissociation ratio (%/day)” value in series [3] (pH 7.4, 36°C) is recorded as 0.8 %/day; in series [3] (pH 8.0, 36°C), 2.0 %/day. The drug dissociation ratio in series [3] (pH 7.4, 36°C, day 0) stood at 0.0%; in series [3] (pH 7.4, 36°C, day 1), 0.7%; in series [3] (pH 7.4, 36°C, day 2), 1.3%; in series [3] (pH 7.4, 36°C, day 3) it was 2.2%; in series [3] (pH 7.4, 36°C, day 4) it was 2.8%; in series [3] (pH 7.4, 36°C, day 5), 3.6%. The drug dissociation ratio in series [3] (pH 7.4, 36°C, day 6) is given as 4.4%; in series [3] (pH 7.4, 36°C, day 7), 5.3%; in series [3] (pH 8.0, 36°C, day 0), 0.0%; in series [3] (pH 8.0, 36°C, day 1) it was 2.1%; in series [3] (pH 8.0, 36°C, day 2), 4.6%; in series [3] (pH 8.0, 36°C, day 3) it was 7.0%. The drug dissociation ratio turned out to be 8.8% in series [3] (pH 8.0, 36°C, day 4); 10.4% in series [3] (pH 8.0, 36°C, day 5); 12.6% in series [3] (pH 8.0, 36°C, day 6); 14.3% in series [3] (pH 8.0, 36°C, day 7).
